Results from the supplement of paper PMC5998384.

Columns and labels:
HeLa Kyoto [1] = assay: solubility in G1/S (NP-40 vs SDS abundance) (log2 ratio); higher = more soluble; conditions: cell cycle stage: G1/S
HeLa Kyoto [2] = assay: solubility change mitosis vs G1/S (difference of NP-40 vs SDS log2 ratios) (log2 ratio difference); higher = more soluble in mitosis
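Throughout, for solubility change mitosis vs G1/S (difference of NP-40 vs SDS log2 ratios): synchronized HeLa Kyoto cells (double thymidine block for G1/S, nocodazole release for mitosis), protein amounts in NP-40 versus SDS lysates quantified by mass spectrometry, three biological replicates.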
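Throughout, for solubility in G1/S (NP-40 vs SDS abundance): HeLa Kyoto cells arrested at G1/S by double thymidine block, proteins quantified by TMT10plex mass spectrometry in mild NP-40 versus SDS extracts, three biological replicates.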

MAST2, sequence (chain, as listed by the source): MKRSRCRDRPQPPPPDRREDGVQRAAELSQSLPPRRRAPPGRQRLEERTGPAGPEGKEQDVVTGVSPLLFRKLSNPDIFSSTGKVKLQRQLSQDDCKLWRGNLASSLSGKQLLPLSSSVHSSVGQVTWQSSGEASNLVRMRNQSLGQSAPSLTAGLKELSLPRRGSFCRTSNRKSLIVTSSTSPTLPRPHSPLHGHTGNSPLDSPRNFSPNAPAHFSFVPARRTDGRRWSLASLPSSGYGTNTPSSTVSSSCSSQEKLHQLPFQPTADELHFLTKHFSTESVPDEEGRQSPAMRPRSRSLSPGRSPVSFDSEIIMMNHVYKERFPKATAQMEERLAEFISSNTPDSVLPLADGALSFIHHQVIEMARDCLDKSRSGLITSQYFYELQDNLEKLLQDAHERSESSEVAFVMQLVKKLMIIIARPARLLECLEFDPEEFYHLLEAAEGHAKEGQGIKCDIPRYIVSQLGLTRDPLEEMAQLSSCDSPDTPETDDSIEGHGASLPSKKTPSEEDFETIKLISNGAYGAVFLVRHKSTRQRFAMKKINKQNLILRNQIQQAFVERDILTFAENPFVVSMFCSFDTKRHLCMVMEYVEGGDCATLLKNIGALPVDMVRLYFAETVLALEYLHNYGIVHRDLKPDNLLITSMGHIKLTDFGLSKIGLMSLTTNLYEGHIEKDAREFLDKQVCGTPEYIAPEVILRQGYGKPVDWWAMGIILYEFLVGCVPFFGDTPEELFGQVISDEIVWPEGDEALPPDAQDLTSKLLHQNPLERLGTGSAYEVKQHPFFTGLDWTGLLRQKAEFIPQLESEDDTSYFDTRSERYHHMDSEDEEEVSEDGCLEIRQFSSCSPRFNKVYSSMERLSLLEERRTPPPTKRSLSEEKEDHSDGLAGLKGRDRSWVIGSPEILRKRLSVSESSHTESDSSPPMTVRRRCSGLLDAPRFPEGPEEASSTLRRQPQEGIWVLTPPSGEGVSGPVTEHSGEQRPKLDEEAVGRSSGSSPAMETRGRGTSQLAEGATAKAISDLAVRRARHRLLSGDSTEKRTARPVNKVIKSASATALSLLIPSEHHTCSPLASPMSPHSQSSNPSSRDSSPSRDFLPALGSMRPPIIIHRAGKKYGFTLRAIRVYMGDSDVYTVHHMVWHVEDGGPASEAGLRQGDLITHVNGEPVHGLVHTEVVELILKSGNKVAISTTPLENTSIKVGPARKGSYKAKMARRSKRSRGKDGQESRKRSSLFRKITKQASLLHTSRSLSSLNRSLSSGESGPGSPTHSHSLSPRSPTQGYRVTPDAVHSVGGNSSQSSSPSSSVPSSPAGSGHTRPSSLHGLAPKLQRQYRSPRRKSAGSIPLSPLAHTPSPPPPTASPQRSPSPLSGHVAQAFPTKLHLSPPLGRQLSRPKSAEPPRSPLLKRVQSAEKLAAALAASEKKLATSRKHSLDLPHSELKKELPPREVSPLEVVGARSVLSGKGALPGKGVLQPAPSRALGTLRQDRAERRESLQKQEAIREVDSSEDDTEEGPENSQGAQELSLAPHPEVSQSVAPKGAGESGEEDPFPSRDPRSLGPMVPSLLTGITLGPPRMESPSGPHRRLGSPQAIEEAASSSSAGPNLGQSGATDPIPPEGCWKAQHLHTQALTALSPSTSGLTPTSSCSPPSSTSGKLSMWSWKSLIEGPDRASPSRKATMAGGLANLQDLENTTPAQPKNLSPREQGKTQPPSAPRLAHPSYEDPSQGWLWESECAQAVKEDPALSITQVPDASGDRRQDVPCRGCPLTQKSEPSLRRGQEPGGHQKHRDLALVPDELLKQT

Row | Substance | solubility in G1/S (log2) (HeLa Kyoto [1]) | solubility change mitosis (log2) (HeLa Kyoto [2])
1 | MALLRKINQVLLFLLIVTLCVILYKKVHKGTVPKNDADDESETPEELEEEIPVVICAAAGRMGATMAAINSIYSNTDANILFYVVGLRNTLTRIRKWIEHSKLREINFKIVEFNPMVLKGKIRPDSSRPELLQPLNFVRFYLPLLIHQHEKVIYLDDDVIVQGDIQELYDTTLALGHAAAFSDDCDLPSAQDINRLVGLQNTYMGYLDYRKKAIKDLGISPSTCSFNPGVIVANMTEWKHQRITKQLEKWMQKNVEENLYSSSLGGGVATSPMLIVFHGKYSTINPLWHIRHLGWNPDARYSEHFLQEAKLLHWNGRHKPWDFPSVHNDLWESWFVPDPAGIFKLNHHS [GLT8D2] | 0.233 | -0.357
2 | MKFAYRFSNLLGTVYRRGNLNFTCDGNSVISPVGNRVTVFDLKNNKSDTLPLATRYNVKCVGLSPDGRLAIIVDEGGDALLVSLVCRSVLHHFHFKGSVHSVSFSPDGRKFVVTKGNIAQMYHAPGKKREFNAFVLDKTYFGPYDETTCIDWTDDSRCFVVGSKDMSTWVFGAERWDNLIYYALGGHKDAIVACFFESNSLDLYSLSQDGVLCMWQCDTPPEGLRLKPPAGWKADLLQREEEEEEEEDQEGDRETTIRGKATPAEEEKTGKVKYSRLAKYFFNKEGDFNNLTAAAFHKKSHLLVTGFASGIFHLHELPEFNLIHSLSISDQSIASVAINSSGDWIAFGCSGLGQLLVWEWQSESYVLKQQGHFNSMVALAYSPDGQYIVTGGDDGKVKVWNTLSGFCFVTFTEHSSGVTGVTFTATGYVVVTSSMDGTVRAFDLHRYRNFRTFTSPRPTQFSCVAVDASGEIVSAGAQDSFEIFVWSMQTGRLLDVLSGHEGPISGLCFNPMKSVLASASWDKTVRLWDMFDSWRTKETLALTSDALAVTFRPDGAELAVATLNSQITFWDPENAVQTGSIEGRHDLKTGRKELDKITAKHAAKGKAFTALCYSADGHSILAGGMSKFVCIYHVREQILMKRFEISCNLSLDAMEEFLNRRKMTEFGNLALIDQDAGQEDGVAIPLPGVRKGDMSSRHFKPEIRVTSLRFSPTGRCWAATTTEGLLIYSLDTRVLFDPFELDTSVTPGRVREALRQQDFTRAILMALRLNESKLVQEALEAVPRGEIEVVTSSLPELYVEKVLEFLASSFEVSRHLEFYLLWTHKLLMLHGQKLKSRAGTLLPVIQFLQKSIQRHLDDLSKLCSWNHYNMQYALAVSKQRGTKRSLDPLGSEEEAEASEDDSLHLLGGGGRDSEEEMLA [PWP2] | -1.72 | 0.632
3 | MCDQQKQPQFPPSCVKGSGLGAGQGSNGASVKCPVPCQTQTVCVTGPAPCPTQTYVKYQVPCQTQTYVKCPAPCQRTYVKYPTPCQTYVKCPAPCQTTYVKCPTPCQTYVKCPAPCQMTYIKSPAPCQTQTCYVQGASPCQSYYVQAPASGSTSQYCVTDPCSAPCSTSYCCLAPRTFGVSPLRRWIQRPQNCNTGSSGCCENSGSSGCCGSGGCGCSCGCGSSGCCCLGIIPMRSRGPACCDHEDDCCC [XP32] | -1.33 | 1.06
4 | MAVDVAEYHLSVIKSPPGWEVGVYAAGALALLGIAAVSLWKLWTSGSFPSPSPFPNYDYRYLQQKYGESCAEAREKRVPAWNAQRASTRGPPSRKGSLSIEDTFESISELGPLELMGRELDLAPYGTLRKSQSADSLNSISSVSNTFGQDFTLGQVEVSMEYDTASHTLNVAVMQGKDLLEREEASFESCFMRVSLLPDEQIVGISRIQRNAYSIFFDEKFSIPLDPTALEEKSLRFSVFGIDEDERNVSTGVVELKLSVLDLPLQPFSGWLYLQDQNKAADAVGEILLSLSYLPTAERLTVVVVKAKNLIWTNDKTTADPFVKVYLLQDGRKMSKKKTAVKRDDPNPVFNEAMIFSVPAIVLQDLSLRVTVAESSSDGRGDNVGHVIIGPSASGMGTTHWNQMLATLRRPVSMWHAVRRN [SYT12] | 0.0502 | -0.135
5 | MAST2 | 0.087 | -0.172
6 | MVSDEDELNLLVIVVDANPIWWGKQALKESQFTLSKCIDAVMVLGNSHLFMNRSNKLAVIASHIQESRFLYPGKNGRLGDFFGDPGNPPEFNPSGSKDGKYELLTSANEVIVEEIKDLMTKSDIKGQHTETLLAGSLAKALCYIHRMNKEVKDNQEMKSRILVIKAAEDSALQYMNFMNVIFAAQKQNILIDACVLDSDSGLLQQACDITGGLYLKVPQMPSLLQYLLWVFLPDQDQRSQLILPPPVHVDYRAACFCHRNLIEIGYVCSVCLSIFCNFSPICTTCETAFKISLPPVLKAKKKKLKVSA [GTF2H3] | -0.126 | 0.117
7 | MMKKKKFKFKVDFELEELSSVPFVNGVLFCKMRLLDGGSFTAESSREVVQANCVRWRKKFSFMCKMSASAATGILDPCIYRVSVRKELKGGKAYAKLGFADLNLAEFAGSGNTTRRCLLEGYDTKNTRQDNSILKVLISMQLMSGDPCFKTPPSTSMSIPIAGESESLQEDRKGGETLKVHLGIADLSAKSASVPDELGACGHSRTSSYASQQSKVSGYSTCHSRSSSFSELCHRRNTSVGSTSTGVESILEPCDEIEQKIAEPNLDTADKEDTASEKLSRCPVKQDSVESQLKRVDDTRVDADDIVEKILQSQDFSLDSSAEEEGLRLFVGPGGSTTFGSHHLPNRVGSGAYEQVVIKR [FAM102B] | -0.233 | 0.0662
8 | MELATRYQIPKEVADIFNAPSDDEEFVGFRDDVPMETLSSEESCDSFDSLESGKQQDVRFHSKYFTEELRRIFIEDTDSETEDFAGFTQSDLNGKTNPEVMVVESDLSDDGKASLVSEEEEDEEEDKATPRRSRSRRSSIGLRVAFQFPTKKLANKPDKNSSSEQLFSSARLQNEKKTILERKKDCRQVIQREDSTSESEDDSRDESQESSDALLKRTMNIKENKAMLAQLLAELNSMPDFFPVRTPTSASRKKTVRRAFSEGQITRRMNPTRSARPPEKFALENFTVSAAKFAEEFYSFRRRKTIGGKCREYRRRHRISSFRPVEDITEEDLENVAITVRDKIYDKVLGNTCHQCRQKTIDTKTVCRNQGCCGVRGQFCGPCLRNRYGEDVRSALLDPDWVCPPCRGICNCSYCRKRDGRCATGILIHLAKFYGYDNVKEYLESLQKELVEDN [CDCA7L] | -0.846 | 0.727
9 | MGSRPPCGATSSARRACQFPAPMAAAREPELPQEAPATEPAPPPACRFFLEGRCRFGARCRQPHPGAPAPPGREAQPEAGAKKPPLRTAADVIQRIRWDPRLDPADFSVGYVDRFLGVREEPFSAFCWDQPLAALGPGVLAVPQHRVRFFRFHGRLVWDRASRTDLVFGSGSAAGRGPTILDAPNTEGAHGAEGAEWTLAGTGQEAQAAPKRGSTRPLCTGHQEPGVEEPGELEAAQERALGTAADLGTLAPRGRLAGVTEEALKPTAATRTTLLGGKEAQALGVPGGSAETTEAEWGPAAWPEDKRARLSVAAPCQPRPTHFVALMVTEPGLQAEVTKAQEYLVHVAPHCANFLVPSQNLHLTLALLRLAGAGEEAAAIGALRRALLAPGLNAPPRLSFRKLVLLGPHVLCAPPSPTLESMAQVLSQRLEAEGLSTLQSPGQLHPHLTVAKVPHGSQVHLPKLEFTLSQEVGCQPLQTLWLCRIGRTGGPFQPLAEIRLE [LENG9] | 0.366 | -0.034
10 | ARAP3 | 0.016 | -0.158
11 | MASLGPAAAGEQASGAEAEPGPAGPPPPPSPSSLGPLLPLQREPLYNWQATKASLKERFAFLFNSELLSDVRFVLGKGRGAAAAGGPQRIPAHRFVLAAGSAVFDAMFNGGMATTSAEIELPDVEPAAFLALLRFLYSDEVQIGPETVMTTLYTAKKYAVPALEAHCVEFLTKHLRADNAFMLLTQARLFDEPQLASLCLDTIDKSTMDAISAEGFTDIDIDTLCAVLERDTLSIRESRLFGAVVRWAEAECQRQQLPVTFGNKQKVLGKALSLIRFPLMTIEEFAAGPAQSGILSDREVVNLFLHFTVNPKPRVEYIDRPRCCLRGKECCINRFQQVESRWGYSGTSDRIRFTVNRRISIVGFGLYGSIHGPTDYQVNIQIIEYEKKQTLGQNDTGFSCDGTANTFRVMFKEPIEILPNVCYTACATLKGPDSHYGTKGLKKVVHETPAASKTVFFFFSSPGNNNGTSIEDGQIPEIIFYT [BTBD1] | -0.225 | 0.0289
